Measurements: patent US20040014138A1 (published 2004)

Target: T1, bovine serum albumin (bovine, UniProt P02769 25-607)
T1 construct: Negative control coating protein in the enzyme capture assay; also called BSA
Test: enzyme capture assay, coated wells, APC-spiked plasma, chromogenic read-out
Protocol: As negative controls, microtiter plate wells were coated with either 5 μg/ml HPC4 monoclonal antibody or 1% bovine serum albumin (BSA) in the same buffer. The plates were then blocked for 1 hour at 37° C. or overnight at 4° C. with 200 μl of blocking buffer (coating buffer containing 1% BSA). The solutions were gently removed from the plates by vacuum.
To generate a standard curve for the quantitative measurement of APC in plasma, increasing amounts of APC (from 0 to 250 ng/ml) were spiked into normal pooled plasma containing 20 mM Hepes, pH 7.5, 2 units/ml heparin, 20 mM benzamidine, and 10 mM CaCl₂. The spiked plasma (100 μl) were transferred to the plates and incubated at room temperature for 1 hour. The wells were then washed three times with wash buffer (20 mM Hepes, pH 7.5, 150 mM NaCl, 0.05% Tween-20, and 5 mM CaCl₂). The chromogenic activity of APC was determined by the addition of 100 μl of Spectrozyme PCa (1 mM) in 20 mM Hepes, pH 7.5, 150 mM NaCl, 5 mM CaCl₂. The plates were immediately placed at 37° C., and substrate hydrolysis was monitored at 405 nm over time using a Vmax microplate reader (Molecular Devices Corp, Sunnyvale, Calif.). All samples were assayed in duplicates or triplicates.

T1 sequence (P02769 25-607 limits assumed): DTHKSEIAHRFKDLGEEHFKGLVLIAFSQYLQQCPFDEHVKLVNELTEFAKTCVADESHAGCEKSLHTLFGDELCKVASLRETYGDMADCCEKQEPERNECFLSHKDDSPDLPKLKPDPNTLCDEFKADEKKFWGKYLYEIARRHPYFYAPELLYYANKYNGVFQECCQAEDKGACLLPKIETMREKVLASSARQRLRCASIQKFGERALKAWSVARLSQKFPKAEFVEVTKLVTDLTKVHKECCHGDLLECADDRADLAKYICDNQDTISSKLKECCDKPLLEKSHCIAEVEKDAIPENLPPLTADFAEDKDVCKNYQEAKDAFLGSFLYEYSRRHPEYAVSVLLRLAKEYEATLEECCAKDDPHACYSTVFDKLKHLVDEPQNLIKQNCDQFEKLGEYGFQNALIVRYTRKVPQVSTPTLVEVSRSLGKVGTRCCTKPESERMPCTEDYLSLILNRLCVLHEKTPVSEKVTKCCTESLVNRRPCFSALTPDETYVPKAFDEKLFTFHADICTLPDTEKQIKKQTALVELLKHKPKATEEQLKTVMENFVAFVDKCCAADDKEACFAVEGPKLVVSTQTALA

B1: human activated protein C (enzyme)
chain 1: ANSFLEELRHSSLERECIEEICDFEEAKEIFQNVDDTLAFWSKHVDGDQCLVLPLEHPCASLCCGHGTCIDGIGSFSCDCRSGWEGRFCQREVSFLNCSLDNGGCTHYCLEEVGWRRCSCAPGYKLGDDLLQCHPAVKFPCGRPWKRMEKKRSHL
chain 2: LIDGKMTRRGDSPWQVVLLDSKKKLACGAVLIHPSWVLTAAHCMDESKKLLVRLGEYDLRRWEKWELDLDIKEVFVHPNYSKSTTDNDIALLHLAQPATLSQTIVPICLPDSGLAERELNQAGQETLVTGWGYHSSREKEAKRNRTFVLNFIKIPVVPHNECSEVMSNMVSENMLCAGILGDRQDACEGDSGGPMVASFHGTWFLVGLVSWGEGCGLLHNYGVYTKVSRYLDWIHGHIRDKEAPQKSWAP
notes: the whole natural protein is named as one piece; also called APC
B1: no binding (tested: 1% coating).
